# In US20230183371A1 (University of Texas, published 2023):
# T1: human CD79b expressed on cells (human, UniProt P40259 29-229)
# T1 construct: whole, on cells; also called human CD79b expressed on mouse fibroblast L cells; CD79b on B cell lymphoma cell lines (Daudi, SUDHL6)
# T1 sequence (looked up): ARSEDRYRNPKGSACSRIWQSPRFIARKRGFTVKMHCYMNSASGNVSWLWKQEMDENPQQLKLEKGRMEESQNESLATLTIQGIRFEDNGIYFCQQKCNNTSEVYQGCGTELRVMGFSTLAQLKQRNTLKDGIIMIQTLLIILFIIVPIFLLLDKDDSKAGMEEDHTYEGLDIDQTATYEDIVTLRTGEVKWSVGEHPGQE
# T2: recombinant human CD79b protein (human, UniProt P40259 29-159, limits assumed)
# T2 sequence (looked up): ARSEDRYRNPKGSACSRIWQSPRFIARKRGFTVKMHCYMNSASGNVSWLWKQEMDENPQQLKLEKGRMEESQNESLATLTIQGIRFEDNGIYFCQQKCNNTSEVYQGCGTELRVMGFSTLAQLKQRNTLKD
# Columns and labels:
# [1] = target: T1, human CD79b expressed on cells; assay: ELISA on mouse fibroblast L cells expressing human CD79b
# Text: Binding of anti-CD79b antibodies to human CD79b: Full length anti-CD79b monoclonal antibodies (clones 5B and 28B) isolated from hybridoma supernatants were used to test binding to human CD79b expressed on mouse fibroblast L cells by ELISA (FIG. 7).
# [2] = target: T2, recombinant human CD79b protein; assay: Octet assay
# [3] = target: T2, recombinant human CD79b protein; assay: ELISA on recombinant human CD79b protein
# [4] = target: T2, recombinant human CD79b protein; assay: EC50 column of the drawn table; the table does not name the assay, the text gives an ELISA on recombinant human CD79b protein (FIG. 2B)
Binder,EC50 [1] [µg/mL],EC50 (read off the curve) [1] [µg/mL],Kd [2] [nM],EC50 (read off the curve) [3] [µg/mL],EC50 [4] [µg/mL]
"anti-CD79b monoclonal antibody clone 5B (antibody, V domains shown, Full length monoclonal antibody isolated from hybridoma supernatant) VH: EVQLQESGAELVKPGASVKMSCKASGYTFTSYWMHWVKQRPGQGLEWIGAIDPSDSYTGYNQKFKGKATLTVDTSSSTAYMHLSSLTSEDSAVYFCTRSYYGNSWFDYWGQGTLVTVSA VL: DIVLTQSPASLAVSLGQRATISCKASQSVDYEGDSYMNWYQQKPGQPPKLLIYAASNLESGIPARFSGSGSGTDFTLNIHPVEEEDAATYHCQQSNEDPFTFGGGTKLEIK",0.0409,~0.04,–,–,–
"anti-CD79b monoclonal antibody clone 28B (antibody, V domains shown, Full length monoclonal antibody isolated from hybridoma supernatant) VH: EVQLQESGAELVKPGASVKMSCKASGYTFTSYWMHWVKQRPGQGLEWIGAIDPSDSYTGYNQKFKGKATLTVDTSSSTAYMHLSSLTSEDSAVYFCTRSYYGNSWFAYWGQGTLVTVSA VL: DIVLTQSPASLAVSLGQRATISCKASQSVDYDGDSYMNWYQQKPGQPPKLLIYVASNLESGIPARFSGSGSGTDFTLNIHPVEEEDAATYYCQQSNEDPFTFGSGTKLEIN",0.0252,~0.02,–,–,–

# Continued, values first:
EC50 [1] [µg/mL],EC50 (read off the curve) [1] [µg/mL],Kd [2] [nM],EC50 (read off the curve) [3] [µg/mL],EC50 [4] [µg/mL],Binder
–,–,1.44,~0.02,0.0162,"anti-human CD79b monoclonal antibody clone 14 (IgG1) (antibody, V domains shown) VH: EVQLQESGPELKKPGETVKISCKASGYTFTDYSMHWVKQAPGKGLKWMGWINTETGEPTYADDFKGRFAFSLETSASTAYLQINNLKNDDTATYFCNMDSWGQGTSVTVSS VL: QIVLTQSPAIMSASPGEKVTMTCSASSSVSYMWWYHQKPGSSPRLLIFDTSNLASGVPVRFSGSGSGTSYSLTISRMEAEDAATYYCQQWTSYPYTFGGGTKLEIK"
–,–,2,~0.03,0.0301,"anti-human CD79b monoclonal antibody clone 45 (IgG2) (antibody, V domains shown) VH: EVQLQESGAELVRPGALVKLSCRASGFNIKDYYMHWVKQRPEQGLEWIGWIDPENGNSIYDPKFQGKASITADTSSNTAYLQLSSLTSEDTAVYYCAVDLYYGRGTLVTVSA VL: NIMMTQSPSSLAVSAGEKVTMRCKSSQSVLYSSNQKNYLAWYQQKPGQSPKLLIYWASTRESGVPDRFTGSGSGTDFTLTISSVQAEDLAVYYCHQFLSSYTFGGGTKLEIK"
